Among the data in a protein production outcome set (Wang et al. 2014) are protein production values, retold here.

This series is described as follows: label from the status in PepcDB records.

With “MNKFIKYFLILLSFGLLVVPIIFATQLYQSSESAFESSQNTKDSQRKSTLRDSKVDPEKQPISILFLGIDDNEGREKNGQSVEHSRSDAMILSTFNQKKHQIRMLSIPRDTISYIPKVGYYDKITHAHAYGGPLAAMDSVEATMNVPVDYYVRINMKAFVEAVDELGGIYYDVPYNLNEPNSDDTGRIKIKKGYQKLNGDQALAVARTRHHDSDLKRGQRQMELIKILFQKAQNLKSIDKLDNVISIVGKNAKHNLTQKEIKSLAKMYLGGSTEIKTSQLKGKDDYLNDIYYYHPSVKSIMEYSNLLRNDLDLSKITNKNDFLDQRVIKRYGSLVPLTELDEDLLRKNQKESTDSQKESDSSSQNNDEEDQTNEQTDQNSLNGNEQYPNQQDNNQTNGENGMINNDNYPYAQ”, the protein production entry was “failed”.
The entry for “MNKKRMIAMVSTALLVTGCAEVGNAQTVAVENSGQSVQKNIVKSIQSQANPLKTIEPSKPFEDLKPLKKMIGNAQYVGLGENTHGSSEIFTMKFRLVKYLVTEMGFTNFAMEEDWGNGLKLNEYIQTGKGNPREFLKLLYPTDEIIAMIEWMKDYNADPSNKKKIQFIGLDLKALDQGSFNKVIDYVRLHRPDLLAEVEENYKELSSFTGSIQEYMKLTPKLKEKFKANAERVARLLKDENEQANTEIIPSEYIWAKATASAIEKFTTMLLPNDYPSIIKLHEQYLADHAMWAQETFGGKTMVWAHNIHIAKGIIDEKLYPYVAGQFLKERLDNNYVTIGSTTTEGNFTLYSEYNPSTGGKITTDTIPQDVKSFNYTLGKVPYKMFLLDNRHLKGQAEKWVKAKRPLLSIGGQILPNSSVYFDTSLLEQFDIIFHIRKTSPSHIKLEHHHHHH” is “not failed”; for “MNKNILFLSLMALPVFAFAENNLVLPTITVSAEQQVQSYAADRLNKQAALGSLGEKSVLDTPFSLVSYSDVMIRDQQASTVSEVLRADPSIRETTNAGHLNENLQIRGFTVGFEDYNINGLYGMSPSGRIPTDILDHVTLLEGPNALVAGMAPAGSVGGVVMAQTKRATKDL” it is “failed”.
The entry for “MNKNTWIIGFTLFAMFFGAGNLIFPTQLGLESGHFFWPAILAFALTGIGLPLLGVVVGALDKHGYIGSFNKISPRFSLIFLIIIYLTIGPLFAIPRTASTSFEMSVTPIAQNSGNLALFIFTVIYFLIVLYLCLNPNKMIDRIGSLLTPLLLITIVAMIIKGFVDFSGHSSNYGMTNAYHSNLSGFSQGFTQGYLTMDAIASIAFSMIVVNAIKTTGIQHADKIFKQTIIAGLIAAIALVFIYISLGYIGNHINIPSDTLKELKAKDQNIGTYLLTTMATKGFGTFGKYLLGIIVSLACLTTACGLIVSVSEYFHRILPKIPYKVFVIFFILVSFILANQGLNSVIKMSVPVLSVIYPVAITVILLILIARFIPTKRIAQQIPLIIVAIESILSLITTQGWIRISFIDDLPLKEYSLEWFPIAVVATLVGYMISYFVKQSNIVYQKE” is “failed”; for “MNKQIDLPIADVQGSLDTRHIAIDRVGIKAIRHPVVVADKGGGSQHTVAQFNMYVNLPHNFKGTHMSRFVEILNSHEREISVESFEEILRSMVSRLESDSGHIEMAFPYFINKSAPVSGVKSLLDYEVTFIGEIKHGNQYSFTMKVIVPVTSLCPCSKKISDYGAHNQRSHVTISVRTNSFIWIEDIIRIAEEQASCELYGLLKRPDEKYVTERAYNNPKFVEDIVRDVAEVLNHDDRIDAYIVESENFESIHNHSAYALIERDKRIR” it is “not failed”; for “MNKRCEEVLRRYFAEVPFIIEKACELAESMLGEGSHGLSHTIRVLDLALQIGRVEGANLEVLALAAILHDIARPLEDKGRIKDHAQEGARIVRSFLSKLRYPHVDEVAHAIEAHRFSTNIEPRTLEAKILSDADKIDALGAIGIARVFMYAGEKGRSIEDSIKHFEEKILRLKDLMYTETGKRIAQERHKIVEEFVNILKKELILEHHHHHH” it is “not failed”.
On to “MNKRFFPRIDLPLLMAIIPIMLLSSLTLWSASGFDESMLFKHLARCALTLVCILVMSSIPAASYQRSAPYLYFVAVSLLLAVALFGDSTNGSQRWLDIGFFRFQPSELIKLSIPIMIAWMLHLEGGRPDFRKIALCLMITLVPAGLIALQPDLDGAIFTVIYALFVLFFAGMSWKIIGGFVVSVLTLAPILWFFVMEAYQKSRVTQFLHPESDPLGSGYQIIQSLIAIGSGGMKGKGWMNATQGTLGFIPESHTDFIFSTYAEEWGFIGCVVLLALYLFITARVMLLACQSEHFFSRLVSGTLAMSFFLYAFINTGMVSGLLPVMGSPLPFFSYGGTAMLTQGICFGVIMSLCYSKYRNT”, for which the protein production entry was “failed”.
For the sequence “MNKTMAKSLSVIIPACNEVDTISDVIQSVRPLNPVEIIVVANGCNDGTEDVADRLGCKVIKHTELLGNDVGRAVGAKHAIGDVLLFIDGDFAIPTSKLKLFLNPILYDQADVVLNNLDALFLKRQKTTSITVWRQILNAMLEREELKMNSLLDVPHALTKEVVQSIGYECFVNPIVAHLRLVQSKWRISRHCAIDVITPNKFRPFQHAAYGTNLSQSEKRMIGDHIEAVAERILSSDERGGYYDGNRKRDSVYHTLSFEEFYQGWGVTSDFYKGKQLSVVIPVQDEEKTIGNVIEELRKIEPFEIIVVVNGSSDKTKKIAKDKGATTIVYKEALGNDVGRSLGTYFAKGEIVLFIDGDFVIPASELYPFAKAIADGTDVALNDLNHYLDLRVPLHLVTAFKYALNLACDRKDLGVGSLIAVPNAFSRKCLKEIGYRSLLAPCVAQVKAILSGFEVACVSRVEVDKMNRIRPSEHFAKIGHPPAVLRIIGDHIEGLDQIIALTDNRGGFYDGNRKRDVLLEHHHHHH”, the protein production entry is on record as “failed”.
As to “MNLDETLLNRIKVIALLNLKLVRKLVIFIMVNCLVLSGIPAALCMSSAPVVYVTGDGSGDFNCDGTDDHVQINQALKFVAENSAYTTVYLKGPFTYVIDDTLLIGSNTILEGDSSAKIKLVNNANWESRKPMIKERSTGISGITIRGFTIDGNREGNTNVVSGKGYYNLIHLSSCQNIKVYDMYLTNNHGDGLKTDKCTNVEFYDNEIYLLGHDGLYASGCSDVEAYGNTITCRTNSGLRLYNTNKASFHDNVITSEGSGGAGIEIQKYNTPAMDDIEVYNNVIYKTALAGIWIFGSGSYSASTANVHVHHNQIYDTGTKTSNSIIGGIVSNGFSGLIENNVIDGAYGAGIVQKTVYSPAPSGSGFLLTVRNNILSNSRSSSGGGSGYGINNELSGTHSFVLQNNCYYGSAGGDSRNVQLSASDIKVDPQFADRSSHDYHLKSIAGRWNGKSWITDSASSPCIDAGYIASDYSKEPQDNGGRINIGTYGNTKYASKSGTTEVVTNQAPVLNSIQDATVEIGESLTFTVSASDAEEDSLSYSASGLPTGATFDSESGIFAWTPAVGQEGTYSVTFVVSDGELTDSATAIINVSKQEDTSKQEDPSTITGEVYDNRLREASPDIVYQSSPFIDVGAMSIGSYRDIMWFDLSVYADYSEVNSATLSLYWYYPAGKARPEDTVIEIYRPADSWNPDYVSWNKKDKRVAWNNAGGDWYDRNGVLQGSTPYATITLEGSDLPDNRYYELDVTDLVNEYISSKYENTGFLIKARTENNNYIAFYSNDCGNENQKPKLTVTEEASVSPIDVQPIDVTVSGAKDNRLREASAENVYQSSAYVDVGALSGVGRYRDMMQFDLSEYADYSEVNSATLFLYWYYPAGKARPEDTVIEIYRPADSWNPDYVSWNKKDKRVAWNNAGGDWYDRNGVLQGSTPYATITLEGSDLPDNRYYELDVTDLVNEYISGKYENTGFLIKARTENNNYIAFYSSEAGGENQRPKLNLQLKQ”, the protein production entry is “failed”.
The entry for “MNLELLTLAVGAYAAVLAFLGWLGYRRTRSAADYLVGGREIHPVLMALAYGSTFISTSAIVGFAGVAALMGMGLLWLTMLNILLGVFVAFVVFGRPTRRLGAALDAHTFPELLGRRYRSRFIQGFAGGTIALLMPLYAAAVLIGGARFLEVQLRLDYHMALFVFAAITVGYVLFGGLKGVVYTDAFQAVLMVCGMLVLLVATYAQVGGLSAHQALTDLADQVPPALRAQGHRGWTAMPAAGSPLWWQMVSTIVLGVGIGVLAQPQLTVRFMTVKSGRELHRALVPGGLFLLLMAGVAYVVGSLTNLWYFQRTGKIALAIMTDPATGKPNVDRLMPLYTQAAMPEWFAYLFMLALLAAAMSTLSAQFHAIGTAIGRDLYEQAFRLGGGAERTVLLARAGILAGFAGTVLLAWNLGPGVIAIATALFFGMCAATFLPAFVSALFWARSTRAGVIAGMLAGFGAWALWVLFVHERESAALGVVKALTGRTSLGAGTTWALVDPIVVALPIAALVTVVGSLAGRAAPGAETGGPARTREGGLDAGLR” is “failed”; for “MNLETKPIAETPNFIVLDQYEKIEQSGSYQSENRLEAELIADLQNQGYEYRKDLNSQSRLLENLRAQLQRLNDVAFSDGEWARFLTEYLDRPAENITDKTRKIHDDHIYDFAFDDGRLKNIYLLDKKNLARNHVQLINQFEQTGTHANRYDVTVLVNGLPLVQIELKKRGVAVREAFNQVHRYSKESFNSGNSLFKFLQIFVISNGTDTRYFANTTKRDKNSFDFTMNWARSDNHPIKDLKDFTATFLQKSVLLSVLLHYSVFDANDTLLIMRPYQIAAAERILWKINSSAQAKNWSGPESGGYVWHTTGSGKTLTGFKAARLATESAFIDKVFFVVDRKDLDYQTMKEYQRFSPDSVNGSESTAGLKRNLEKDGNKIIVTTIQKLNNLMKSEDNLPVYHRQVVFIFDECHRSQFGEAQKNLKKKFKKFCQFGFTGTPIFPENALGAETTAGVFGRELHSYVITDAIRDEKVLKFKVDYNDVRPQFKAVEAEQDEKELSAAENRQALLHPERIREITQYILSRFRQKTHRLNAGGKGFNAMFAVSSVDAAKCYYEAFKTQQAGSLHPLKTATIFSFAANEEQNAVGEIVDETFEPEAMDSSAKEFLQAAINDYNACFKTNFGTDSKAFQNYYRDLAKRVKNREVDLLIVVGMFLTGFDAPTLNTLFVDKNLRYHGLMQAFSRTNRIYDATKTFGNIVCFRDLEQATIDAITLFGDKNTKNVVLEKSYEEYMNGYTDSQTGEARRGYLDVAKELHERFPDPDKIETEKDKKDFAKLFGEYLRAENVLQNYDEFAALRELQNVDAADEDAMKAFQEKYYLSDEDVQEMRKVPMPSERAVQDYRSAYNDIRDWLRRQKAGEQKEQSKIDWDDVVFEVDLLKSQEINLDYILQLVFEHHKKIKGKAELVEEIRRIIRASIGHRAKEGLIVDFINDTDLDKVPDVPAILETFYTYAQEVMRHEAAGLIAAEGLNETAAKRYLTGSLKRGYASENGTELTETLPKMSPLNPQYLTKKQSVFQKIAAFVEKFAGIGADI” it is “failed”; for “MNLHTKTWVQRLPVPIDVAWDFFSQPGNLARITPPEMMLKAEGGNAGTAIYEGMKLNFVLYPFMMIPVRWTTEIMKVSKPDFFEDRQLSGPYEQWYHRHLFRDIEGGTEMTDIVEYALPFDLFGEVVEALIVGPRLDEVFEYRRCRVAEILGLEHHHHHH” it is “failed”.
As to “MNLIWFLIIGGLAGWLAGLIMKGKGFGVLANIGIGIVGSFIGGFLFGLLQLSAHGAIGRLVTATVGAVLLLAIVNKIKKG”, the protein production result is given as “failed”.
In the case of “MNLNDYKGILVFAEQRDGILQNVGLELLGKATELAYEINKQIALKDAGDELADFAGKKEAAIKSVDVAAATLEEDDQELKNKVADIKKNNPDAAKVTALLVGHNIKNLAQDLIKAGADKVLVVDKPELEVYDTEAYAQVLTATINDQKPEIVLFGATTLGRDLAPRVSSRIATGLTADCTKLELLKDKERQLGMTRPAFGGNLMATIVSPDHRPQMATVRPGVMKKLPKSDDRTGEVVEFPVTLDTSKMKVKLLKVVKEGGNKVDISEAKILVSGGRGVGSKQNFELLEDLATEIGGIVSSSRAQVDAGNMPHDRQVGQTGKTVRPEVYFACGISGAIQHVAGMEESEFIIAINKDRFAPIFSVADLGIVGDLHKILPILTEEIKKYKATK”, the protein production entry is on record as “failed”.
Regarding “MNLNIRIKNYWEGEAQGYSEAIEDELNGFERKAWSDLVLEYAPSKDRLDILDIGTGPGFFPIVLSQGGHNVTGIDLTENMIEFARLNLAREGASAKLVTMDCQNLKFPDNCFDLLVCRNLTWTLDDPAKAYKEWHRVLKPGGRVLIFDACWYLHLFDENMKIAYEKKEKEILMKYGHPMHQHKDQVEGDALSRKLFMSDKVRPQWDLDIMLKLGFSKVFADTSVGERILNEQQQDRNSMHPPFLVGGEK”, the protein production entry is “failed”.
